Results published in the supplement of paper PMC7877785.
± gives the uncertainty stated by the source.

Assay: self-splicing fitness, log relative to wild type (ln ratio); higher = more splicing; Tetrahymena group I intron in knt gene, E. coli kanamycin selection, DiMSum; sequences stand for … in CUCUCU…GGAGGGAAAAGUUAUCAGGCAUGCACCUGGUAGCUAGUCUUUAAACCAAUAGAUUGCAUCGGUUUAAAAGGCAAGACCGUCAAAUUGCGGGAAAGGGGUCAACAGCCGUUCAGUACCAAGUCUCAGGGGAAACUUUGAGAUGGCCUUGCAAAGGGUAUGGUAAUAAGCUGACGGACAUGGUCCUAACCACGCAGCCAAGUCCUAAGUCAACAGAUCUUCUGUUGAUAUGGAUGCAGUUCACAGACUAAAUGUCGGUCGGGGAAGAUGUAUUCUUCUCAUAAGAUAUAGUCGGACCUCUCCUUAAUGGGAGCUAGCGGAUGAAGUGAUGCAACACUGGAGCCGCUGGGAACUAAUUUGUAUGCGAAAGUAUAUUGAUUAGUUUUGGAGUACUCGUGGUCG
Procedure, shortened: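 Pooled colonies went to amplicon sequencing on an Illumina HiSeq 2500 after six replicate transformations. The plates were LB agar with 100 μg/mL carbenicillin, 50 μM IPTG and 0.2% rhamnose, with or without 25 μg/mL kanamycin, incubated overnight at 37°C or 30°C. The E. coli BL21(DE3) library had all eight P1ex-region intron nucleotides randomised, the intron placed in the knt kanamycin-resistance gene on pET-22b(+). DiMSum fitness is the error-weighted combination of replicate fold changes, kanamycin against none, normalised to wild type.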

AAAUAGCAAUAUUACGUCUC
self-splicing fitness (ln) (30 °C): -2.14 ± 0.11
self-splicing fitness (ln) (37 °C): -1.15 ± 0.14

CAAGAGCAAUAUUACGGAUU
self-splicing fitness (ln) (30 °C): -3.03 ± 0.25
self-splicing fitness (ln) (37 °C): -3.21 ± 0.37

CGGAAGCAAUAUUACGGUCU
self-splicing fitness (ln) (30 °C): -1.38 ± 0.074
self-splicing fitness (ln) (37 °C): -0.791 ± 0.099

UAUGAGCAAUAUUACGGUGA
self-splicing fitness (ln) (30 °C): -2.21 ± 0.16
self-splicing fitness (ln) (37 °C): -3.36 ± 0.27

AAUAAGCAAUAUUACGCCGA
self-splicing fitness (ln) (30 °C): -0.856 ± 0.14
self-splicing fitness (ln) (37 °C): -0.632 ± 0.16

CACUAGCAAUAUUACGCUAC
self-splicing fitness (ln) (37 °C): -2.31 ± 0.25

UGGAAGCAAUAUUACGUUAU
self-splicing fitness (ln) (30 °C): -2.23 ± 0.14
self-splicing fitness (ln) (37 °C): -3.09 ± 0.2

GGUUAGCAAUAUUACGUUUU
self-splicing fitness (ln) (30 °C): -1.03 ± 0.055
self-splicing fitness (ln) (37 °C): -0.945 ± 0.083

CCUCAGCAAUAUUACGUUCA
self-splicing fitness (ln) (30 °C): -2.61 ± 0.16
self-splicing fitness (ln) (37 °C): -2.68 ± 0.3

CGAAAGCAAUAUUACGCUUC
self-splicing fitness (ln) (30 °C): -2.95 ± 0.38
self-splicing fitness (ln) (37 °C): -2.01 ± 0.39

AUCGAGCAAUAUUACGGCGC
self-splicing fitness (ln) (30 °C): -1.38 ± 0.091
self-splicing fitness (ln) (37 °C): -0.856 ± 0.13

AAACAGCAAUAUUACGGGUG
self-splicing fitness (ln) (30 °C): -3.09 ± 0.094
self-splicing fitness (ln) (37 °C): -1.73 ± 0.089

UAGAAGCAAUAUUACGGACC
self-splicing fitness (ln) (30 °C): -2 ± 0.4
self-splicing fitness (ln) (37 °C): -0.433 ± 0.34

AGCAAGCAAUAUUACGACCG
self-splicing fitness (ln) (30 °C): -0.988 ± 0.069
self-splicing fitness (ln) (37 °C): -0.512 ± 0.097

AAUUAGCAAUAUUACGGAUA
self-splicing fitness (ln) (30 °C): -1.75 ± 0.11
self-splicing fitness (ln) (37 °C): -0.926 ± 0.11

GCGAAGCAAUAUUACGCUCU
self-splicing fitness (ln) (30 °C): -1.7 ± 0.24
self-splicing fitness (ln) (37 °C): -1.49 ± 0.38

AUCAAGCAAUAUUACGCCGC
self-splicing fitness (ln) (30 °C): -2.23 ± 0.34

GCUAAGCAAUAUUACGUUAU
self-splicing fitness (ln) (30 °C): -1.7 ± 0.072
self-splicing fitness (ln) (37 °C): -1.48 ± 0.12

CUAAAGCAAUAUUACGGAUU
self-splicing fitness (ln) (30 °C): -4.39 ± 0.22
self-splicing fitness (ln) (37 °C): -2.62 ± 0.23

UUAAAGCAAUAUUACGCAUC
self-splicing fitness (ln) (30 °C): -1.88 ± 0.17
self-splicing fitness (ln) (37 °C): -1.39 ± 0.34

CAACAGCAAUAUUACGAUCC
self-splicing fitness (ln) (30 °C): -2.87 ± 0.2
self-splicing fitness (ln) (37 °C): -1.4 ± 0.16

CGAUAGCAAUAUUACGACGA
self-splicing fitness (ln) (30 °C): -1.5 ± 0.17
self-splicing fitness (ln) (37 °C): -0.547 ± 0.15

AUUCAGCAAUAUUACGCUUG
self-splicing fitness (ln) (30 °C): -0.971 ± 0.083
self-splicing fitness (ln) (37 °C): -0.265 ± 0.093

GGAUAGCAAUAUUACGCCUA
self-splicing fitness (ln) (30 °C): -1.45 ± 0.14
self-splicing fitness (ln) (37 °C): -0.0155 ± 0.17

UCAUAGCAAUAUUACGCGGC
self-splicing fitness (ln) (30 °C): -3.53 ± 0.44

AAUUAGCAAUAUUACGCAGG
self-splicing fitness (ln) (30 °C): -2.44 ± 0.23
self-splicing fitness (ln) (37 °C): -1.89 ± 0.23

CUGAAGCAAUAUUACGGGUU
self-splicing fitness (ln) (30 °C): -3.71 ± 0.21
self-splicing fitness (ln) (37 °C): -2.77 ± 0.22

UAGGAGCAAUAUUACGGGCA
self-splicing fitness (ln) (30 °C): -2.72 ± 0.26
self-splicing fitness (ln) (37 °C): -2.63 ± 0.39

UAAUAGCAAUAUUACGCAUA
self-splicing fitness (ln) (30 °C): -1.13 ± 0.18
self-splicing fitness (ln) (37 °C): -0.681 ± 0.15

GGACAGCAAUAUUACGAUCU
self-splicing fitness (ln) (30 °C): -2.62 ± 0.18
self-splicing fitness (ln) (37 °C): -1.8 ± 0.2

AUUCAGCAAUAUUACGGGAG
self-splicing fitness (ln) (30 °C): -0.828 ± 0.051
self-splicing fitness (ln) (37 °C): -0.443 ± 0.063

GUCAAGCAAUAUUACGUAGU
self-splicing fitness (ln) (30 °C): -1.21 ± 0.068
self-splicing fitness (ln) (37 °C): -0.468 ± 0.1

UUUUAGCAAUAUUACGCUCG
self-splicing fitness (ln) (30 °C): -0.861 ± 0.14
self-splicing fitness (ln) (37 °C): -0.128 ± 0.16

GCUCAGCAAUAUUACGUCUU
self-splicing fitness (ln) (30 °C): -0.48 ± 0.054
self-splicing fitness (ln) (37 °C): -0.252 ± 0.066

UGCUAGCAAUAUUACGCAAG
self-splicing fitness (ln) (30 °C): -3.87 ± 0.33
self-splicing fitness (ln) (37 °C): -3.11 ± 0.25

GACCAGCAAUAUUACGACGG
self-splicing fitness (ln) (30 °C): -2.67 ± 0.15
self-splicing fitness (ln) (37 °C): -1.99 ± 0.18

UCGAAGCAAUAUUACGUUGG
self-splicing fitness (ln) (30 °C): -2.99 ± 0.12
self-splicing fitness (ln) (37 °C): -1.86 ± 0.15

UUCCAGCAAUAUUACGACGG
self-splicing fitness (ln) (30 °C): -2.74 ± 0.32
self-splicing fitness (ln) (37 °C): -1.98 ± 0.29
